Assay results taken from patent US20130108650A1 (ACCELERON PHARMA, published 2013).
Blank lines part the entries; values can stand above or below the binder they belong to.

B2: hActRIIB-hFc (human ActRIIB ECD linked to human IgG1 Fc) (Fc fusion, not shown: a dimerising Fc or GST)
chain: SGRGEAETRECIYYNANWELERTNQSGLERCEGEQDKRLHCYASWRNSSGTIELVKKGCWLDDFNCYDRQECVATEENPQVYFCCCEGNFCNERFTHLPEAGGPEVTYEPPPTAPTLLT

How the values were obtained:
[1] = molecular target: B2; test: SPR (BIACORE) competition: biotinylated ActRIIB-Fc on streptavidin chip, sFab 40 ug/ml then GDF11 500 ng/ml; competitor GDF11
Experimental: Affinity-purified sFabs were also screened in two SPR-based competition assays at Acceleron. The first assay evaluated the effect of sFab pretreatment on binding of GDF11 to immobilized ActRIIB-Fc. […] This signal was compared with a second signal (residual GDF11 binding) resulting from GDF11 binding to immobilized ActRIIB-Fc that had first been exposed to sFab (40 μg/ml).

activin A = molecular target: T1, activin A (UniProt P08476 311-426); test: cell-based or functional assay
T1 sequence (looked up): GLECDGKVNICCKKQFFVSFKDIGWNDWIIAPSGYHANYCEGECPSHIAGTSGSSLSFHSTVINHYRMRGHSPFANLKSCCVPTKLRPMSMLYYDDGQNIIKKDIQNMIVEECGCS

hActRIIB-mFc [2] = molecular target: T2, hActRIIB-mFc (human; mouse, UniProt Q13705 19-137); test: SPR (BIACORE), Ab-17G05 on hActRIIB-mFc compared with Fab-17G05 on hActRIIB-hFc
T2 construct: not shown: murine IgG2a Fc (captured by antibody against murine IgG2a Fc)
T2 sequence: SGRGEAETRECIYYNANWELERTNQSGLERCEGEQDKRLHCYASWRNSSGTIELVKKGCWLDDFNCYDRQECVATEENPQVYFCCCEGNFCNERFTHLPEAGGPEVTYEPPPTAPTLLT
Experimental: (§1) FIG. 2 depicts kinetic characterization of Ab-17G05 binding to hActRIIB-mFc as determined by BIACORE™-based analysis at 25° C. (A) or 37° C. (B). hActRIIB-mFc was captured on a chip with covalently immobilized antibody against murine IgG2a Fc and then exposed to Ab-17G05 at concentrations ranging from 0.0195 μg/ml to 5 μg/ml.
(§2) BIACORE™-based analysis was used to characterize binding of Ab-17G05 to ActRIIB. For this analysis, Ab-17G05 was purified from COS-cell-conditioned media by one-step protein G chromatography.

hActRIIB-mFc [3] = molecular target: T2, hActRIIB-mFc; test: SPR (BIACORE), hActRIIB-mFc captured on anti-murine IgG2a Fc chip, antibody in solution, 25 C
Experimental: as §1, §2

[4] = molecular target: B2; test: cell-based or functional assay
hActRIIB-mFc [5] = molecular target: T2, hActRIIB-mFc; test: SPR (BIACORE), hActRIIB-mFc captured on anti-murine IgG2a Fc chip, antibody in solution, 37 C
Experimental: FIG. […] (A) or 37° C. (B). hActRIIB-mFc was captured on a chip with covalently immobilized antibody against murine IgG2a Fc and then exposed to Ab-17G05 at concentrations ranging from 0.0195 μg/ml to 5 μg/ml.
as §2

[6] = molecular target: B2; test: SPR (BIACORE), human ActRIIB-hFc, Fab in solution, 37 C
[7] = molecular target: B2; test: SPR (BIACORE), human ActRIIB-hFc, Fab in solution, 25 C
[8] = molecular target: B2; test: SPR (BIACORE), hActRIIB-hFc captured on anti-human IgG1 Fc chip, Fab in solution, 37 C (values of Example 4 reprinted for comparison)
Experimental: (§3) FIG. […] (A) or 37° C. (B). hActRIIB-hFc was captured on a chip with covalently immobilized antibody against human IgG1 Fc and then exposed to Fab-17G05 at concentrations ranging from 0.0195 μg/ml to 5 μg/ml. RU, response units.

[9] = molecular target: B2; test: SPR (BIACORE), hActRIIB-hFc captured on anti-human IgG1 Fc chip, Fab in solution, 25 C (values of Example 4 reprinted for comparison)
Experimental: (§4) FIG. 1 depicts kinetic characterization of Fab-17G05 binding to hActRIIB-hFc as determined by BIACORE™-based analysis at 25° C. (A) or 37° C. (B). hActRIIB-hFc was captured on a chip with covalently immobilized antibody against human IgG1 Fc and then exposed to Fab-17G05 at concentrations ranging from 0.0195 μg/ml to 5 μg/ml. RU, response units.

[10] = molecular target: B2; test: SPR (BIACORE), hActRIIB-hFc captured on anti-human IgG1 Fc chip, Fab in solution, 37 C
Experimental: as §3

[11] = molecular target: B2; test: SPR (BIACORE), hActRIIB-hFc captured on anti-human IgG1 Fc chip, Fab in solution, 25 C
Experimental: as §4

[12] = molecular target: B2; test: SPR (BIACORE), hActRIIB-hFc captured on anti-human IgG1 Fc chip, Fab in solution, 25 C (values of Example 4 reprinted for comparison); 25 C; Fab values reprinted for comparison with Ab-17G05
Experimental: as §4

[13] = molecular target: B2; test: SPR (BIACORE), hActRIIB-hFc captured on anti-human IgG1 Fc chip, Fab in solution, 37 C; 37 C
Experimental: as §3

[14] = molecular target: B2; test: SPR (BIACORE), human ActRIIB-hFc, Fab in solution, 25 C; 25 C

Binder: B2
- IC50 of inhibition of activin A signaling, A204 reporter gene assay (activin A 5 ng/ml) (activin A): 0.05 µg/mL

B3: Ab-17G05 (antibody, V domains shown)
VH: EVQLLESGGGLVQPGGSLRLSCAASGFTFSNYWMGWVRQAPGKGLEWVSYIRSSGGLTHYADSVKGRFTISRDNSKNTLYLQMNSLRAEDTATYYCAKGLYSFDYWGQGTLVTVSS
VL: DIQMTQSPSSLSASVGDRVTITCRASQGVNNFLAWYQQKPGKAPRLLIYAASTLQSGVPSRFSGSGSGTDFTLSISNLQPEDFATYYCQQSYSTPRGFGQGTKVEIK
notes: also called antibody 17G05; Ab-R17G05
- fold improvement in off-rate and KD against Fab-17G05 (hActRIIB-mFc [2]): ≥ 20 fold
- Kd (hActRIIB-mFc [3]): 0.028 nM
- koff (hActRIIB-mFc [3]): 2.7e-05 s⁻¹
- kon (hActRIIB-mFc [3]): 970000 M⁻¹ s⁻¹
- IC50 of neutralization, A204 cell-based reporter gene assay (activin A 5 ng/ml plus ActRIIB-Fc 50 ng/ml) [4]: ~0.04 nM
- Kd (hActRIIB-mFc [5]): 0.092 nM
- koff (hActRIIB-mFc [5]): 0.00014 s⁻¹
- kon (hActRIIB-mFc [5]): 1.5e+06 M⁻¹ s⁻¹

B6: Fab-17A11 (Fab, V domains shown)
VH: EVQLLESGGGLVQPGGSLRLSCAASGFTFSTYAMMWVRQAPGKGLEWVSRIYPSGGTTTYADSVKGRFTISRDNSKNTLYLQMNSLRAEDTAVYYCARGSAASSYWGQGTLVTVSS
VL: DIQMTQSPSFLSASVGDRVTITCRASQGISNYLAWYQQKPGKAPKLLIYAASTLQSGVPSRFSGSGSGTEFTLTISSLQPEDIGTYYCQQLISYPFTFGPGTKVDIK
notes: Soluble Fab from Dyax's Fab310 library; the Fab constant domains are not; also called sFab 17A11
- Kd [14]: 1.6 nM
- Kd [6]: 9.9 nM
- koff [6]: 0.014 s⁻¹
- kon [6]: 1.4e+06 M⁻¹ s⁻¹
- koff [7]: 0.00019 s⁻¹
- kon [7]: 1.2e+06 M⁻¹ s⁻¹
- residual GDF11 binding [1]: < 50 % of Emax

The next lines start with the values.

- residual GDF11 binding [1]: < 50 % of Emax
B1: Fab-17C09 (Fab, V domains shown)
VH: EVQLLESGGGLVQPGGSLRLSCAASGFTFSQYNMTWVRQAPGKGLEWVSSIYSSGGVTPYADSVKGRFTISRDNSKNTLYLQMNSLRAEDTAVYYCARGRLLFDYWGQGTLVTVSS
VL: DIQMTQSPSSLSASVGDRVTITCRASQSISNYLNWYQQRPGKPPKLLIYAASSLQSGVPSRFSGSGSGTDFSLSISILQPEDFATYYCQQGYTAPRSFGQGTKVEIK
notes: Soluble Fab from Dyax's Fab310 library; the Fab constant domains are not; also called sFab 17C09

- Kd [6]: 21 nM
- koff [6]: 0.012 s⁻¹
- kon [6]: 580000 M⁻¹ s⁻¹
- Kd [7]: 3.8 nM
- koff [7]: 0.0018 s⁻¹
- kon [7]: 460000 M⁻¹ s⁻¹
- residual GDF11 binding [1]: < 50 % of Emax
B4: Fab-17G01 (Fab, V domains shown)
VH: EVQLLESGGGLVQPGGSLRLSCAASGFTFSNYQMDWVRQAPGKGLEWVSYIGPSGGRTKYADSVKGRFTISRDNSKNTLYLQMNSLRAEDTATYYCARGLYSFDYWGQGTLVTVSS
VL: DIQMTQSPSSLSASVGDRVTITCRAGQSISNFLNWYQHTPGTGPKVLIYAASSLQSGVPSRFSGSGSGTEFTLTITNLQPEDFATYYCQQSYSTPFTFGPGTKVDIK
notes: Soluble Fab from Dyax's Fab310 library; the Fab constant domains are not; also called sFab 17G01

- Kd [8]: 1.9 nM
- koff [8]: 0.0031 s⁻¹
- kon [8]: 2.6e+06 M⁻¹ s⁻¹
- Kd [9]: 0.55 nM
- koff [9]: 0.00087 s⁻¹
- IC50 of neutralization, A204 cell-based reporter gene assay (activin A 5 ng/ml plus ActRIIB-Fc 50 ng/ml) [4]: ~2.6 nM
- koff [10]: 0.0031 s⁻¹
- kon [10]: 2.6e+06 M⁻¹ s⁻¹
- Kd [11]: 0.55 nM
- koff [11]: 0.00087 s⁻¹
- kon [11]: 1.6e+06 M⁻¹ s⁻¹
- kon [12]: 1.6e+06 M⁻¹ s⁻¹
- residual GDF11 binding [1]: < 50 % of Emax
- Kd [13]: 1.9 nM
B5: Fab-17G05 (Fab, V domains shown)
VH: EVQLLESGGGLVQPGGSLRLSCAASGFTFSNYWMGWVRQAPGKGLEWVSYIRSSGGLTHYADSVKGRFTISRDNSKNTLYLQMNSLRAEDTATYYCAKGLYSFDYWGQGTLVTVSS
VL: DIQMTQSPSSLSASVGDRVTITCRASQGVNNFLAWYQQKPGKAPRLLIYAASTLQSGVPSRFSGSGSGTDFTLSISNLQPEDFATYYCQQSYSTPRGFGQGTKVEIK
notes: the Fab constant domains are not; also called sFab 17G05; Fab-R17G05
